From publication PMC4987395

Target: Arabidopsis thaliana plasmodesmata-located protein 1 (PDLP1) fused to RFP (Arabidopsis thaliana) (UniProt Q8GXV7)
Assay: FRET or BRET; FRET-FLIM: GFP on the MP as donor, RFP on PDLP1 as acceptor; co-expressed by agroinfiltration in N. benthamiana leaves, measured at spots in plasmodesmata; donor fluorescence lifetime by time-correlated single-photon counting

Chain of UniProt Q8GXV7 (Q8GXV7 22-303): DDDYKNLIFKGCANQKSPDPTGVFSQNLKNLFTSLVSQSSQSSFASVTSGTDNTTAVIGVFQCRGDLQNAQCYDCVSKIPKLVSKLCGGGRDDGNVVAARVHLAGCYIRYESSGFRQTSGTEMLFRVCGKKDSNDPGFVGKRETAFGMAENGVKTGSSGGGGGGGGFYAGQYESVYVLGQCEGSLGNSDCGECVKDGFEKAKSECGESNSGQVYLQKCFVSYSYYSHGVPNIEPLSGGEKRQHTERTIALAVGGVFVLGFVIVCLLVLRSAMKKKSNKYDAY

Substance: cowpea mosaic virus (CPMV) movement protein (48K) fused at its C-terminus to GFP (natural protein)
- FRET efficiency: 7.5%

Substance: grapevine fanleaf virus (GFLV) 2B movement protein with GFP fused at its N-terminus (natural protein)
- FRET efficiency: 6.7%
